Reference: patent publication US7297837 (Johns Hopkins, dated 2007)

Target: T1, full-length hMLH1 protein (human, UniProt P40692 1-756, 35S-labelled methionine where labelled)
T1 construct: Called full-length
T1 sequence (looked up): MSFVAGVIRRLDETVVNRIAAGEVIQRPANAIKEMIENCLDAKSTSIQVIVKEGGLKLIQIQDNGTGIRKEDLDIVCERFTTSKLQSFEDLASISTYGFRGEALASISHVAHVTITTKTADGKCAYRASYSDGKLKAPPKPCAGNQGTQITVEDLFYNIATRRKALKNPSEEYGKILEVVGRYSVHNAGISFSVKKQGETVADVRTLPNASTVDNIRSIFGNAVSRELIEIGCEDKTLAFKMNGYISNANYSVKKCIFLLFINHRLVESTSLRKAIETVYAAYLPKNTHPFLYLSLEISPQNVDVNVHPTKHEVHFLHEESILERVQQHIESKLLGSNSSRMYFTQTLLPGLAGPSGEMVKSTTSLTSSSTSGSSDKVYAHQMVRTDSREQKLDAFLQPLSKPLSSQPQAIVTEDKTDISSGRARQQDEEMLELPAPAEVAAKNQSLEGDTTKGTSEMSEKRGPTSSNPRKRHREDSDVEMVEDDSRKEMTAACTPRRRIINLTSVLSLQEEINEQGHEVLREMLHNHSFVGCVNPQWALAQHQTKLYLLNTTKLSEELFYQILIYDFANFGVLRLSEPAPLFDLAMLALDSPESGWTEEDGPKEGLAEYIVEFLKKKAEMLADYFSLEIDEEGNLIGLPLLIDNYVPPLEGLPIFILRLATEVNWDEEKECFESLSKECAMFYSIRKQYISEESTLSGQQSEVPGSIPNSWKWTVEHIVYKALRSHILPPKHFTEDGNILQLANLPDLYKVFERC
Test: co-immunoprecipitation of in vitro translated proteins with anti-hMLH1 mAb (FIG. 5B, lane 1); converse with N-terminal hPMS2 antibody (FIG. 5C, lane 2)
Protocol: Immunoprecipitation, Immunoprecipitations were performed on in vitro translated proteins by mixing the translation reactions with 1 μg of the MLH1 specific monoclonal antibody (mAB) MLH14 (Oncogene Science, Inc.), a polyclonal antibody generated to codons 2-20 of hPMS2 described above, or a polyclonal antibody generated to codons 843-862 of hPMS2 (Santa Cruz Biotechnology, Inc.) in 400 µl of EBC buffer (50 mM Tris, pH 7.5, 0.1 M NaCl, 0.5% NP40). After incubation for 1 hr at 4° C., protein A sepharose (Sigma) was added to a final concentration of 10% and reactions were incubated at 4° C. for 1 hour. Proteins bound to protein A were washed five times in EBC and separated by electrophoresis on 4-20% Tris-glycine gels, which were then dried and autoradiographed.
Previous studies have shown that these two proteins dimerize to form a functionally active complex (12, 28). Proteins were synthesized in vitro using reticulocyte lysates, employing RNA generated from cloned templates. The full-length hMLH1 and hPMS2 proteins bound to each other and were co-precipitated with antibodies to either protein, as expected (data not shown). […] When a ^35S-labelled, full length hMLH1 protein (FIG. 5A, lane 5) was mixed with the unlabelled carboxyl terminal hPMS2 polypeptide, a monoclonal antibody (mAb) to the carboxyl terminus of hPMS2 efficiently immunoprecipitated the labeled hMLH1 protein (lane 1). […]

B1: hPMS-134 (containing codons 1-134 of hPMS2), in vitro translated (other, human, UniProt P54278 1-134, looked up)
chain: MERAESSSTEPAKAIKPIDRKSVHQICSGQVVLSLSTAVKELVENSLDAGATNIDLKLKDYGVDLIEVSDNGCGVEEENFEGLTLKHHTSKIQEFADLTQVETFGFRGEALSSLCALSDVTISTCHASAKVGTR
modifications: 35S-labelled methionine
notes: The patient allele expressed in cells is said to give the N-terminal 133 amino acids
Does B1 bind?
Result: no binding
